Earlier results, collected in publication PMC8869670.

Target: Thioredoxin (Homo sapiens) (UniProt P10599)
Sequence (P10599 2-105): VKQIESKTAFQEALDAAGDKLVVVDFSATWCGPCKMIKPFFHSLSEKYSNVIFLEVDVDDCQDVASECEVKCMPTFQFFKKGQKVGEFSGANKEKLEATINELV

## p53 (from UniProt P04637)
  Kd: 900 nM
